Laboratory results as given in the supplement of paper PMC12042874.
± gives the uncertainty stated by the source.

Experiment: amyloid nucleation score (Sup35N fusion, yeast selection) (log enrichment); library NNK3; higher = more nucleation; inactive = no reads after selection
Procedure, shortened: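 Random libraries were run with three technical output replicates. In each, psi-negative yeast expressing Sup35N fused to peptides of 20 random codons were induced 24 hours with 100 μM copper sulfate and grown 7 days at 30°C on medium lacking adenine and uracil, and input and output plasmid inserts were Illumina-sequenced. The nucleation score is the DiMSum log enrichment of output over input reads, centred on the mode score of non-aggregating sequences, and sequences under 100 input reads were excluded.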

Substance	amyloid nucleation score
GLVVKSKYMRRFPGTR	inactive
LGPAVELGMT	inactive
DHFMNGMKQYTCRYFVLWPS	inactive
NNVVVL	inactive
IIYKTVHVYVYCSIVLERDL	inactive
YSLFGWVSMFGC	inactive
EVSWVSRNVWFNRTCFCVQV	0.042 ± 0.64
NMMAYFVFLGMKANFYMWVW	inactive
VHVSEGPRWRFHSRRDSSVV	inactive
YIETISPFLCGCYSIFSPMI	2.8 ± 0.084
MVCEKERTWVTSRHWLERYR	-0.203 ± 1.3
GQDWIAV	inactive
FGFRCWLFWS	inactive
PIFWR	inactive
LYGIFHRYTNFCSSVLCQVF	1.66 ± 0.12
LLSADFSFSSVEMKLARLGV	1.22 ± 0.18
RSVVEWGS	inactive
YLGCSINLGTEDIIYAESEH	inactive
INYLFASRSKQEQLLDWRFS	inactive
RPMRACRGMEVRGFSSEVSA	inactive
NNTNAQKLLINV	inactive

Substance	amyloid nucleation score
GDERGLLMYVPG	inactive
NLMGRCTEFRKYI	inactive
IFIIIGRRFIILKSLVRLHF	inactive
MEYWYYDMD	inactive
YNSSYFYMMCPFLSSFSPFS	2.81 ± 0.067
CSTCISTNFSPY	inactive
WRKTSVMFADSGIV	inactive
VIVYQKSMLHLGCSLGIAFW	inactive
GLPSFRHSF	inactive
NCLLTFDQNYTRGIPAKI	inactive
DRLALEFVYRR	0.145 ± 0.44
NNSASNPILFGRYVTASREY	inactive
SMLSAIMGSS	inactive
GLLSPRTGCD	inactive
FWFSTELVDDGAGQT	inactive
MFQFVFSVQMSGSAFRMFMK	inactive
TNPTVYWDRGMVGCKKLRAH	inactive
IFDLWLRLYSLANYNGSFVT	inactive
YPHLMK	1.54 ± 0.12
SPDDVDYFFLVRNDRMCAYV	inactive
PQASVDQFLYFPIWTYLGIN	inactive

Substance	amyloid nucleation score
IMANFVRMYLEYMMRAAVSL	inactive
PGVYKNVAFLR	inactive
KISSQIYMCRKTNSSDRTMM	inactive
NGFVI	inactive
CNHVLTNRLMHSSKNRCLFI	inactive
CIFCRFFKVLVGHSYL	inactive
TLVGTFYSMQRSDRIWR	0.475 ± 0.69
CVTSVAWANKICARQLFGAD	0.204 ± 0.37
LLSIAVVDVPSRLSRCITLL	inactive
RLWLYR	inactive
SRYHLDFRYYSINKSLMSGV	inactive
GYGVCNNDKCVQDAPGQPVS	-0.357 ± 1.1
FVYTHIWGVGLGKML	0.632 ± 0.14
RFGVSKLARAS	inactive
GEKCGRSRI	inactive
TFYDNLSDRLFSWS	inactive
TGQLSSQPIIQISREPIAFT	inactive
IMLLLYSESYLTPRTVVNSR	inactive
GGKLSRNI	inactive
CNTPR	inactive
ICTLCNVSRLLWSPRDKNAF	2.93 ± 0.063

Substance	amyloid nucleation score
SNFVVSNPISSRGTMNIRII	inactive
QFVCHHGSPAFPNDGVAKLL	inactive
FGRFVMERLTS	inactive
YYYLR	inactive
PMMGSLYFVP	inactive
RVLRLLRVDAGHNLI	-0.029 ± 0.81
TVRDELSSVFL	inactive
KDNKGMGRMFSNILFFTISL	0.663 ± 0.13
SYTKDVV	inactive
RKLKHLS	inactive
ESMISNGFWGLRARCSVINM	inactive
CKRLPIACLTSLTKAR	inactive
FFFRYILKGMPVLFAVCRHC	inactive
DLMTMSYRLMIIFLVDTWPR	inactive
VIRDQQIIVKCCNLVSICGI	1.32 ± 0.17
VLCQSHACRSHAGLCSSNKI	inactive
GVTQVIWVAYNILFLNNCWM	inactive
LCVMCCATSFSHVCILIYRI	inactive
